B1: SA-5-61 (antibody, V domains shown)
VH: EVQLLESGGGLVQPGGSLKLSCAASGFTFDSYAMSWVRQAPGKGLEWVSAISGSGGSTYYADSVKGRFTISRDNSKNTLYLQMNSLRAEDTAVYYCAKDTGIDFWGQYPPYFDLWGRGTLVTVSS
VL: DIQLTQSPSSVSASVGDRVTITCRASQDISSWLAWYQQKPGKAPKLLIYAASSLQSGVPSRFSGSGSGTDFTLTISSLQPEDFATYYCQQGYIFPRTFGGGTKVEIK
notes: IgG
B2: SA-5-59 (antibody, V domains shown)
VH: EVQLLESGGGLVQPGGSLRLSCAASGFTFDNYAMSWVRQAPGEGLEWVSAVSGSGGSTYYADSVRGRFTISRDNSKNTLYLQMDSLRAEDTAVYYCAKDTGIDFWARTPPYFDLWGRGTLVTVSS
VL: DIQLTQSPSSVSASVGDRVTITCRASQDISSWLAWYQQKPGKAPKLLIYAASSLQSGVPSRFSGSGSGTDFTLTISSLQPEDFATYYCQQGYIFPRTFGGGTKVEIK
notes: IgG
B3: SA-56-85 (antibody, V domains shown)
VH: EVQLLESGGGVVQPGRSLGLSCAASGSTFSYYGMSWVRQAPGKGLEWVASIWVDGSNKYYADSVKGRFTISRDNSKSTLYLQMNSLRAEDTAVYYCARGVETYSGPNWFDPWGQGTLVTVSS
VL: DIQMTQSPSSVSASVGDRVTITCRASQGISSWLAWYQQKPGKAPKLLIYAASSLQSGVPSRFSGSGSGTDFTLTISSLQPEDFATYYCQQAIYFPITFGGGTKVENQ
notes: IgG; also called SA-85
B4: SA-56-89 (antibody, V domains shown)
VH: EVQLVESGGGVVQPGGSLRLSCAASGFTFSYYGMSWVRQAPGKGLEWVASIWVDGSNKYYADSVKGRFTVSRDNSKNTLYLQMDSLRAEDTAVYYCARGVETYSGPNWFDPWGQGTLVTVSS
VL: DIQMTQSPSSVSASVGDRVTITCRASQGISSWLAWYQQKPGKAPKLLIYAASSLQSGVPSRFSGSGSGTDFTLTISSLQPEDFATYYCQQAIYFPITFGGGTKVEIK
notes: IgG; also called SA-89
B5: SA-5-57 (antibody, V domains shown)
VH: EVQLLESGGGLVQPGGSLRLSCAASGFTFDSYAMSWVRQAPGKGLEWVSATSGGGGSTYHADPVKGRFTISRDNSKNTLYLQMNSLRAEDTAVYYCAKDITDDFWSVTPPYFDLWGRGTLVTVSS
VL: DIQLTQSPSSVSASVGDRVTITCRASQDISSWLAWYQQKPGKAPKLLIYAASSLQSGVPSRFSGSGSGTDFTLTISSLQPEDFATYYCQQGYIFPRTFGGGTKVEIK
notes: IgG
B6: SA-13-68 (antibody, V domains shown)
VH: EVQLLESGGGLVQPGGSLRLSCAASGFTFTEYAMSWVRQAPGKRLEWVSAISGSGGSTYYADSVKGRFTISRDNSKNTLYLQMSSLRAEDTAVYYCARDNIQWGPHFYWGQGTLVTVSS
VL: DIQMTQSPSSLSASVGDRVTITCRASQSISSYLNWYQQKPGKAPKLLIYAASSLQSGVPSRFSGSGSGTDFTLTISSLQPEDFATYYCQQGYIYPPTFGGGTKVEIK
notes: IgG
B7: SA-5-58 (antibody, V domains shown)
VH: EVQLLESGGGLVQPGGSLRLSCAASGFTFDSYAMSWVRQAPGKGLEWVSAISGSGGSTYHADSVKGRFTISRDNSKNTLYLQMNSLRAEDTAVYYCAKDTGISLWSVTPPYFDLWGRGTLVTVSS
VL: DIQLTQSPSSVSASVGDRVTITCRASQDISSWLAWYQQKPGKAPKLLIYAASSLQSGVPSRFSGSGSGTDFTLTISSLQPEDFATYYCQQGYIFPRTFGGGTKVEIK
notes: IgG
B8: SA-56-86 (antibody, V domains shown)
VH: QVQLVESGGGVVQPGGSLRLSCAASGFTFSYYGMSWVRQAPGKGLEWVASIWVDGSSKYYADSVKGRFTISRDNSKNTLYLQMNSLRAEDTAVYYCARGVETYSGPNWFDPWGQGTLVTVSS
VL: DIQMTQSPSSVSASVGDRVTITCRASQGISSWLAWYQQKPGKAPKLLIYAASSLQSGVPSRFSGSGSGTDFTLTISSLQPEDFATYYCQQAIYFPITFGGGTKVEIK
notes: IgG
B9: SA-56-88 (antibody, V domains shown)
VH: EVQLVESGGGVVQPGRSLRLSCAASGFTFSYYGMSWVRQAPGKGLEWVASIWVDGSNKYYADSAKGRFTISRDNSKNTLYLQMNSLRAEDTAVYYCAEGKETYSGPNWFDPWGQGTLVTVSS
VL: DIQMTQSPSSVSASVGDRVTITCRASQGISSWLAWYQQKPGKAPKLLIYAASSLQSGVPSRFSGSGSGTDFTLTISSLQPEDFATYYCQQAIYFPITFGGGTKVEIK
notes: IgG
B10: SA-56-87 (antibody, V domains shown)
VH: EVQLVESGGGVVQPGRSLRLSCAASGFTFSYYGMSWVRQAPGKGLEWVASIWVDGSNKYYADSVKGRFTISRDNSKNTLYLQMNSLRAEDTAVYYCAFGLETYSGPNWFDPWGQGTLVTVSS
VL: DIQMTQSPSSVSASVGDRVTITCRASQGISSWLAWYQQKPGKAPKLLIYAASSLQSGVPSRFSGSGSGTDFTLTISSLQPEDFATYYCQQAIYFPITFGGGTKVEIK
notes: IgG
B11: SA-8-66 (antibody, V domains shown)
VH: QVQLVESGGGVVQPGRSLRLSCAASGFTFSSYGMHWVRQAPGKGLEWVAVINGDGSNKYYADSVKGRFTISRDNSKNTLYLQMNSLRAEDTAVYYCAKEPRSYWHGYGMDVWGQGTTVTVSS
VL: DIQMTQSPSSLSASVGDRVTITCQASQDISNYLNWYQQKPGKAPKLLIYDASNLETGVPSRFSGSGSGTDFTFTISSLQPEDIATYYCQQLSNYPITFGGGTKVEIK
notes: IgG
B12: SA-8-62 (antibody, V domains shown)
VH: QVQLVESGGGLVKPGGSLRLSCAASGFTFSSYSMHWVRQAPGKGLEWVSSISSSDSWIYYADSVKGRFTISRDNAKNSLYLQMDSLRAEDTAVYYCAKERVDYWHGYGMDVWGQGTTVTVSS
VL: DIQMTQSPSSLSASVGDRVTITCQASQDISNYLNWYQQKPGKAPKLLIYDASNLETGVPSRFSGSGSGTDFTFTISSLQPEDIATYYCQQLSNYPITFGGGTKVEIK
notes: IgG
B13: SA-8-64 (antibody, V domains shown)
VH: QVQLVESGGGLVKPGGSLRLSCAASGFTFSSYSMHWVRQAPGKGLEWVSSISSSDSWIYYADSVKGRFTISRDNAKNSLYLQMNSLRAEDTAVYYCAKEPRSYWHGYGMDVWGQGTTVTVSS
VL: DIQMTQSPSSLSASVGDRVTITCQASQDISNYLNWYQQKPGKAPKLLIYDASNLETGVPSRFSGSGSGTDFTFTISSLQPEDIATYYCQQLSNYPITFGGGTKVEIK
notes: IgG
B14: SA-8-67 (antibody, V domains shown)
VH: EVQLVESGGGLVKPGGSLRLSCAASGFTFSSYSMHWVRQAPGKGLEWVSSISSSPSHIYYADSVKGRFTISRDNAKNSLYLQMNSLRAEDTAVYYCAKEPRSYWHGYGMDVWGQGTTVTVSS
VL: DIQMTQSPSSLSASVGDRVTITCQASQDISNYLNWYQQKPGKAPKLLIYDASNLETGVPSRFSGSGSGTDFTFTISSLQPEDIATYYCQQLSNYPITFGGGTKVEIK
notes: IgG
B15: SA-19-74 (antibody, V domains shown)
VH: QVQLVESGGGVVQPGRSLRLSCAASGFAFSSYAMHWVRQAPGKGLEWVAGILYDGSNKYYADSVKGRFTISRDNSKNTLYLQMNSLRAEDTAVYYCARHSQKYTLGFAFDIWGQGTMVTVSS
VL: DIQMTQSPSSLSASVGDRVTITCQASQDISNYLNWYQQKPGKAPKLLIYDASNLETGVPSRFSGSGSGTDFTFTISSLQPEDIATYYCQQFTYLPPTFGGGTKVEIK
notes: IgG
B16: SA-19-81 (antibody, V domains shown)
VH: QVQLVESGGGVVQPGRSLRLSCAASGFTSSSYGMHWVRQAPGKGLEWVAVIAYDGSNKLYADSVKGRFTISRDNSKNTLYLQMNSLRAEDTAVYYCARTPTKYTLGFAFDIWGQGTMVTVSS
VL: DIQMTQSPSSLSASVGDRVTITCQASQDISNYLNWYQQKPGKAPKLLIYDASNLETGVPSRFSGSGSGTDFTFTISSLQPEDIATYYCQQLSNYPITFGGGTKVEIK
notes: IgG
B17: SA-19-79 (antibody, V domains shown)
VH: QVQLVESGGGVVQPGRSLRLSCAASGFTFSSYGMHWVRQAPGKGLEWVAVIAYDGSNKIYADSVKGRFTISRDNSKNTLYLQMNSLRAEDTAVYYCATTDTKYTLGFAFDIWGQGTMVTVSS
VL: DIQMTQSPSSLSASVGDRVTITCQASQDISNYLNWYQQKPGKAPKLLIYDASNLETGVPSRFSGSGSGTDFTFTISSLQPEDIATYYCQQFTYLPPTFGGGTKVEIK
notes: IgG
B18: SA-19-78 (antibody, V domains shown)
VH: QVQLVESGGGVVQPGRSLRLSCAASGFTFSSYGMHWVRQAPGKGLEWVAVIAYDGSNKLYADSVKGRFTISRDNSKNTLYLQMDSLRAEDTAVYYCATSDTKYTLGFAFDIWGQGTMVTVSS
VL: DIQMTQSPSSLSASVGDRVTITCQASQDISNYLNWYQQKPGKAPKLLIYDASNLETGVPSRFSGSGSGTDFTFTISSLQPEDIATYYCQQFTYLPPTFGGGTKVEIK
notes: IgG
B19: SA-19-76 (antibody, V domains shown)
VH: QVQLVESGGGVVQPGRSLRLSCAASGFTFSSYGMHWVRQAPGKGLEWVAVIAYDGSNKLYADSVKGRFTISRDNAKNSLYLQMNSPRAEDTAVYYCATMRTKYTLGFAFDIWGQGTMVTVSS
VL: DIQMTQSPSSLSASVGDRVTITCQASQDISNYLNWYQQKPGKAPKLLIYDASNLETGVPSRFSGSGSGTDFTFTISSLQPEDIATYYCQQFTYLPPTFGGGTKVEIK
notes: IgG
B20: SA-19-75 (antibody, V domains shown)
VH: QVQLVESGGGVVQPGRSLRLSCAASGFTFSSYGMHWVRQAPGKGLEWVAVIAYDGSNKLYADSVKGRFTISRDNSKNTLYLQMNSLRAEDTAVYYCALMRTKYTLGFAFDIWGQGTMVTVSS
VL: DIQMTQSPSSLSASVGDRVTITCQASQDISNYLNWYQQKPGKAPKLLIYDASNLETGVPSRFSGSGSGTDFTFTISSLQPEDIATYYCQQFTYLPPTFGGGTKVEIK
notes: IgG
B21: SA-19-84 (antibody, V domains shown)
VH: QVQLVESGGGVVQPGRSLRLSCAASGFTFSSYGMHWVRQAPGKGLEWVAVIAYDGSNKLYADSVKGRFTISRDNSKNTLYLQMNSLRAEDTAVYYCARTQLKYTLGFAFDIWGQGTMVTVSS
VL: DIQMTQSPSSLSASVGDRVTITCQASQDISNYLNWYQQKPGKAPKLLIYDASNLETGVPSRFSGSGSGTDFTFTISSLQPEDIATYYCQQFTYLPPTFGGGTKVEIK
notes: IgG
B22: SA-19-80 (antibody, V domains shown)
VH: EVQLLESGGGVVQPGRSLRLSCAASGFTFSSYGMHWVRQAPGKGLEWVAGILYDGSNKYYADSVKGRFTISRDNSKNTLYLQMDGLRAEDTAVYYCARHSVKYTLGFAFDIWGQGTMVTVSS
VL: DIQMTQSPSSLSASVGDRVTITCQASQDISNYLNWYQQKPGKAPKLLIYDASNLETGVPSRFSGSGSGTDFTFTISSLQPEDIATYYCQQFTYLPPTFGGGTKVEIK
notes: IgG
B23: SA-19-83 (antibody, V domains shown)
VH: QVQLVESGGGVVQPGRSLRLSCAASGFTFDSYLMHWVRQAPGKGLEWVASIIYDGSNKYYADSVKGRFTISRDNSKNTLYLQMNSLRAEDTAVYYCASVRTKYTLGFAFDIWGQGTMVTVSS
VL: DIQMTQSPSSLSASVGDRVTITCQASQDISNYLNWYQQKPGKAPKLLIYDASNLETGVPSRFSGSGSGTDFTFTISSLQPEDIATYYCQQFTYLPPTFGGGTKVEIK
notes: IgG
B24: SA-19-82 (antibody, V domains shown)
VH: QVQLVESGGGVVQPGRSLRLSCAASGFTFSSYAMHWVRQAPGKGLEWVAGILYDGSNKYYADSVKGRFTISRDNSKNTLYLQMNSLRAEDTAVYYCARHVLKYTLGFAFDIWGQGTMVTVSS
VL: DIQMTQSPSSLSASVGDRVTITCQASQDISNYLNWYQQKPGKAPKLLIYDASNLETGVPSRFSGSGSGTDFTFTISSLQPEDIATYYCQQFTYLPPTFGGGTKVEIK
notes: IgG
B25: SA-19-77 (antibody, V domains shown)
VH: QVQLVESGGGVVQPGRSLRLSCAASGFTFSSYGMAWVRQAPGKGLEWVAQILYDGSNEYYADSVKGRFTISRDNSKNTLYLQMNSLRAEDTAVYYCARDLTKYTLGFAFDIWGQGTMVTVSS
VL: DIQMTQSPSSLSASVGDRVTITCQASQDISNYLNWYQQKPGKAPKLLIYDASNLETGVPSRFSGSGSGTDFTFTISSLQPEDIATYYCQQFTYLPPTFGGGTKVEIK
notes: IgG

Tests used:
[1] = molecular target: T1, human SIRPA Fc fusion antigen (human, UniProt P78324 31-373); test: ForteBio IgG avid;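 note: ForteBio sensor-based avid binding of anti-SIRPA antibodies in IgG format, with the binding partner in solution at 100 nM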
T1 construct: heterologous signal peptide; not shown: human IgG1 Fc

[2] = molecular target: T2, human SIRPβ1 Fc fusion antigen (human, UniProt O00241 30-371); test: ForteBio IgG avid;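 note: ForteBio sensor-based avid binding of anti-SIRPA antibodies in IgG format, with the binding partner in solution at 100 nM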
T2 construct: not shown: human IgG1 Fc
T2 sequence (O00241 30-371 limits assumed): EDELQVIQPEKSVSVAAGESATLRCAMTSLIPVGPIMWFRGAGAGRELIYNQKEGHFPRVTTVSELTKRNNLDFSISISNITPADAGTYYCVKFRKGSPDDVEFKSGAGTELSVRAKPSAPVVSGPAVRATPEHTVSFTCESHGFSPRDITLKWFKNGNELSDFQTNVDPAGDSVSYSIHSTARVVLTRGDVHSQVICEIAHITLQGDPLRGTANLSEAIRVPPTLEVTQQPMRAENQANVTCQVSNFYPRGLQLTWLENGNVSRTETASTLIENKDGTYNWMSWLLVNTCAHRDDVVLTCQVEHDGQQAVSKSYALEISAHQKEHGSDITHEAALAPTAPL

Binder | Kd [1] [nM] | Kd [2] [nM] | binding result [2]
B1 | 2.3 | 9.31 | 
B2 | 3.03 |  | no binding (tested: 100 nM)
B3 | 0.341 |  | no binding (tested: 100 nM)
B4 | 0.415 |  | no binding (tested: 100 nM)
B5 | 2.61 |  | no binding (tested: 100 nM)
B6 | 1.92 | 3.45 | 
B7 | 2.78 |  | no binding (tested: 100 nM)
B8 | 0.339 | 12.4 | 
B9 | 0.379 |  | no binding (tested: 100 nM)
B10 | 0.396 |  | no binding (tested: 100 nM)
B11 | 2.14 | 13.1 | 
B12 | 0.371 | 4.67 | 
B13 | 0.952 | 8.36 | 
B14 | 1.84 | 14.2 | 
B15 | 0.676 | 4.08 | 
B16 | 0.711 | 2.59 | 
B17 | 0.31 | 1.36 | 
B18 | 1.06 | 2.08 | 
B19 | 0.504 | 2.05 | 
B20 | 0.537 | 3.13 | 
B21 | 0.573 | 2.6 | 
B22 | 1.41 | 4.25 | 
B23 | 0.505 | 2.82 | 
B24 | 0.742 | 3.45 | 
B25 | 0.441 | 3.94 | 

Reference: patent US20240270866A1 (Alector, published 2024)
